The source of these data is paper PMC5801593 (Frontiers in Molecular Biosciences, 2017).

Broadly, the stoichiometry N is a count of units in the complex or per binding partner.

Common to all, as to conditions: both partners purified
The target in assay [1] is T1, cysteine desulfurase IscS (E. coli, UniProt P0A6B7 1-404).
T1 construct: IscS, cysteine desulfurase of E. coli; Dimer by native MS (observed 91,035 Da, predicted 91,037 Da); An adduct of about +304 Da is put down to beta-mercaptoethanol hetero-disulfides; also called wild-type IscS; source: E. coli BL21(DE3), purified (Ni-NTA, TEV cleavage, gel filtration)
The assay can be described thus: BLI; competition: biotinylated CyaY immobilised on streptavidin biosensors, exposed to 10 μM IscS at IscX 0-60 μM; 20 mM HEPES pH 7.5, 150 mM NaCl, 2 mM TCEP, 0.5 mg/mL BSA, 25°C; apparent Kd from the response reduction, 1:1 model. For orientation: Biolayer interferometry detects binding as a change in optical thickness at a sensor tip.

For assay [2], the target named is T2, IscU-IscS complex (immobilized IscS saturated with IscU) (E. coli, UniProt P0A6B7 1-404; P0ACD4 2-128, biotin (site not stated)).
T2 construct: IscS, cysteine desulfurase of E. coli; as the chain of m7; IscU of E. coli; as the chain of m4; also called IscS saturated by IscU; source: formed on the biosensor from purified E. coli-made proteins: immobilized IscS saturated by IscU (10 μM); copies: 2 +
The assay can be described thus: BLI; IscS immobilised and saturated by IscU (10 μM), titrated with IscX 0-60 μM; apparent Kd, 1:1 model.

Another assay has as its target T3, biotinylated IscS (E. coli, UniProt P0A6B7 1-404, biotin (site not stated)).
T3 construct: IscS, cysteine desulfurase of E. coli; Same protein as m1, biotinylated to hold it on streptavidin biosensors; also called immobilized IscS; source: E. coli BL21(DE3), purified (Ni-NTA, TEV cleavage, gel filtration), biotinylated
The assay can be described thus: BLI; biotinylated IscS immobilised on streptavidin biosensors, IscX 0-50 μM; 20 mM HEPES pH 7.5, 150 mM NaCl, 2 mM TCEP, 0.5 mg/mL BSA, 25°C; apparent Kd, 1:1 model; data not shown.

The target in assay [3] is T1, cysteine desulfurase IscS. The assay can be described thus: native MS; ESI-MS under non-denaturing conditions; IscS 3 μM in 250 mM ammonium acetate pH 8, IscX at 0-16 IscX/IscS molar ratios, 5 min at room temperature; sequential binding model (DynaFit).

B1: biotinylated CyaY (natural protein, E. coli, UniProt P27838 1-106, looked up)
chain: MNDSEFHRLADQLWLTIEERLDDWDGDSDIDCEINGGVLTITFENGSKIIINRQEPLHQVWLATKQGGYHFDLKGDEWICDRSGETFWDLLEQAATQQAGETVSFR
modifications: biotin (site not stated)
notes: CyaY, frataxin ortholog of E. coli; Same protein as m3, biotinylated to hold it on streptavidin biosensors; also called immobilized CyaY; source: E. coli BL21(DE3), purified (Ni-NTA, TEV cleavage, gel filtration), biotinylated
For B1, the binding result in assay [1] was “binds”.

B2: IscX (natural protein, E. coli, UniProt P0C0L9 1-66, looked up)
chain: MGLKWTDSREIGEALYDAYPDLDPKTVRFTDMHQWICDLEDFDDDPQASNEKILEAILLVWLDEAE
modifications: also: mixed disulfide with β-mercaptoethanol on majority of protein, most likely
notes: IscX (YfhJ) of E. coli; Predicted mass 7859 Da, observed 7935 Da; the predicted mass may include some; also called YfhJ; source: E. coli BL21(DE3), purified (Ni-NTA, TEV cleavage, gel filtration)
Regarding B2, the Kd in assay [2] amounted to 8 ± 2 µM; in the assay with biotinylated IscS it was 8 ± 3 µM; in assay [1] it was 6 ± 2 µM. The “Kd of the first two IscX per IscS dimer (primary site)” value in assay [3] amounted to 13.7 ± 0.4 µM. In assay [3], the “Kd of the third and fourth IscX per IscS dimer (secondary site)” value was determined as 170 ± 10 µM. Besides, in assay [3], the “stoichiometry N” value is not above 4 IscX per IscS dimer.
